Substitutions are numbered along the chain they refer to. Blank lines part the entries; values can stand above or below the binder they belong to. Ends that are not written are not given here.
Columns and labels:
[1] = target: T1, human plasma Kallikrein (Calbiochem, San Diego, Calif., # 420302) (human, UniProt P03952 20-638); assay: inhibition; method not described
T1 construct: mature; Bought enzyme coupled to agarose beads with Reactigel (6x); also called pKA; human Kallikrein

[2] = target: T2, Plasmin; assay: inhibition; method not described
T2 construct: Protease target in the specificity test
T2 sequence (P00747 97-580, chain 1 of 2): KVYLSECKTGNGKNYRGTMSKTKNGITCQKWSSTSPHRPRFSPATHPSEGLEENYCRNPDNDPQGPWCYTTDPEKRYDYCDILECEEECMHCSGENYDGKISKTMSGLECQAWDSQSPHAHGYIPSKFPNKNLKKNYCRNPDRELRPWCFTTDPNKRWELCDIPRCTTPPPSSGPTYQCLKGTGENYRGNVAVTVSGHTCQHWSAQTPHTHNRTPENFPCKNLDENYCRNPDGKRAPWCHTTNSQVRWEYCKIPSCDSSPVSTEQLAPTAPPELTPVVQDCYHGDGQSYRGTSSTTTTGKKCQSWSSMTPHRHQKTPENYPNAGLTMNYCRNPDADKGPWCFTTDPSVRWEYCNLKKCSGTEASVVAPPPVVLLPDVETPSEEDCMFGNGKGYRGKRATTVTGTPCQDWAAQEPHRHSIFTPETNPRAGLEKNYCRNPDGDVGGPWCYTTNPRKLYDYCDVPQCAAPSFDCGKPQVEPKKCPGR
T2 sequence (P00747 581-810, chain 2 of 2): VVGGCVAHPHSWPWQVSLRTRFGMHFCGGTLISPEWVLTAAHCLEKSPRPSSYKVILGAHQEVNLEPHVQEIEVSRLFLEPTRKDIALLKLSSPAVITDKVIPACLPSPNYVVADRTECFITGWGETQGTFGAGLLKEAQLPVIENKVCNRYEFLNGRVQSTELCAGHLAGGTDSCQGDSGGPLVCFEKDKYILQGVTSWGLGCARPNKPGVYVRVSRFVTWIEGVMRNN

[3] = target: T1, human plasma Kallikrein (Calbiochem, …); assay: preliminary inhibition measurements; method not described
[4] = target: T1, human plasma Kallikrein (Calbiochem, …); assay: display-phage binding to kallikrein beads; pfu eluted / input (10^10 pfu)
[5] = target: T1, human plasma Kallikrein (Calbiochem, …); assay: display-phage binding to kallikrein beads; fraction bound relative to parental
[6] = target: T1, human plasma Kallikrein (Calbiochem, …); assay: display-phage binding to protease target
[7] = target: T2, Plasmin; assay: display-phage binding to protease target
[8] = target: T3, Thrombin; assay: display-phage binding to protease target
T3 construct: Protease target in the specificity test

[9] = target: T4, Trypsin; assay: display-phage binding to protease target
T4 construct: Protease target in the specificity test

[10] = target: T4, Trypsin; assay: display-phage binding to protease target; trypsin, two washes

T1 sequence (P03952 20-638 limits assumed): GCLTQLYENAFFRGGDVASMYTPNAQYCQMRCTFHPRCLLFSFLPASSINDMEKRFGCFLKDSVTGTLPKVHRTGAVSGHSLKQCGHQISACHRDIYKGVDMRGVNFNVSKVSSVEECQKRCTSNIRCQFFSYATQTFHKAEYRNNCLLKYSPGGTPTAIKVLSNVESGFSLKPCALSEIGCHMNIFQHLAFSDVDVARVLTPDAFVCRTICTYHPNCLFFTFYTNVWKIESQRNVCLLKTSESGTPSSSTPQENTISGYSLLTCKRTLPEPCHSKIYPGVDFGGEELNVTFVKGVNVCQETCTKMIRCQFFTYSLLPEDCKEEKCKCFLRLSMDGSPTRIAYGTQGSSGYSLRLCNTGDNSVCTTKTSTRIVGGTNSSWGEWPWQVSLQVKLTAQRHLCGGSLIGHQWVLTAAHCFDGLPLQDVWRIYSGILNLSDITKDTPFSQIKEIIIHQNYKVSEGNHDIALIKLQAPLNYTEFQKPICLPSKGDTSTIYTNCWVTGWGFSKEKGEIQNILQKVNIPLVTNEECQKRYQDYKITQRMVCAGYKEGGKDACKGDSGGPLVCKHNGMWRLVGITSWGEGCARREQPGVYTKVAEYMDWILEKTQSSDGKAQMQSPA

- relative binding (compared to the parental phage display) [6]: 1 fold relative to parental phage display
- relative binding (compared to the parental phage display) [7]: 1 fold relative to parental phage display
- relative binding (compared to the parental phage display) [8]: 1 fold relative to parental phage display
- relative binding (compared to the parental phage display) [9]: 1 fold relative to parental phage display
- relative binding (compared to the parental phage display) [10]: 1 fold relative to parental phage display
- Fraction Bound [4]: 4.2e-06 fraction of input pfu
- Relative Binding [5]: 1 fold relative to LACI(K1) display-phage
B3: LACI-K1 (first Kunitz domain of LACI, residues 50-107 of SEQ ID NO:25) (other)
chain: MHSFCAFKADDGPCKAIMKRFFFNIFTRQCEEFIYGGCEGNQNRFESLEECKKMCTRD
notes: also called parental molecule

- Fraction Bound [4]: 0.0039 fraction of input pfu
- Relative Binding [5]: 928 fold relative to LACI(K1) display-phage
B4: KKII/3#5 (designed binder)
chain: B3 chain with P13H, I17S, M18L, K19P, E39G
notes: LACI-K1 Kunitz domain variant

Continued, binder first:

B1: KKII/3#6 (designed binder)
chain: B3 chain with P13H, I17N, M18H, K19Q, I34S, E39G
notes: LACI-K1 Kunitz domain variant
- Ki ratio against wild-type LACI and BPTI [1]: > 100 times
- Ki [2]: 10 µM
- Ki [3]: < 0.0005 µM
- Fraction Bound [4]: 0.0087 fraction of input pfu
- Relative Binding [5]: 2070 fold relative to LACI(K1) display-phage

B2: KKI/3 (a) (designed binder)
chain: B3 chain with P13R, A16G, I17A, M18H, K19L
modifications: not fully specified; cysteine pairing not given here
notes: LACI-K1 variant from the first phase of screening; also called KKII/3 (a); clone a
- Fraction Bound [4]: 3.2e-05 fraction of input pfu
- Relative Binding [5]: 761 fold relative to LACI(K1) display-phage

B5: KKI/3 (b) (designed binder)
chain: B3 chain with M18H, K19L
modifications: not fully specified; cysteine pairing not given here
notes: LACI-K1 variant from the first phase of screening; also called KKII/3 (b); clone b
- Fraction Bound [4]: 0.0022 fraction of input pfu
- Relative Binding [5]: 524 fold relative to LACI(K1) display-phage

— patent US20060264603A1 (DYAX, published 2006)
